Numbered stars: 1 amine (or outer) side, 2 acyl side, 3 side chain; on linkers, the order of the positions; unused ones are H or OH. Bridge positions count the residues as written; N and C are the ends. * marks the point of attachment. C20 diacid = O=C(O)CCCCCCCCCCCCCCCCCCC(=O)*; γGlu = O=C(O)[C@H](CCC(=O)[*:2])N[*:1]
T1: rat amylin receptor (rat calcitonin receptor + rat RAMP 3) (rat, UniProt P32214 25-516; Q9JJ73 23-147)
T1 construct: whole, on cells; Used as membranes prepared from the transfected cells; also called rAmylin-R; rat amylin 3(a) receptor
T1 sequence (looked up) 1: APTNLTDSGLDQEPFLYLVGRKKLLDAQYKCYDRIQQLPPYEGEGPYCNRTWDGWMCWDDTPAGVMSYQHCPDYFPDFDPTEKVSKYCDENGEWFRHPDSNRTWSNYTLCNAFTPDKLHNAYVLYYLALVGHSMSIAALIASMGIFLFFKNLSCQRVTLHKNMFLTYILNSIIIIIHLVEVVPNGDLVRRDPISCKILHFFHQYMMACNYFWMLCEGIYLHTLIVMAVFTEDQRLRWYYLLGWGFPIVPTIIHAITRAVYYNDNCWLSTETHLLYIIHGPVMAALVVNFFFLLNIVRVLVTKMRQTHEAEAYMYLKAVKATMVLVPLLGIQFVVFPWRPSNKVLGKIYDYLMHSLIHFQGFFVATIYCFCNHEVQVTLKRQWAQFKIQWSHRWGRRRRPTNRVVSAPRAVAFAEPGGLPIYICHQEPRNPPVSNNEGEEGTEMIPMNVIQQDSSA
T1 sequence (looked up) 2: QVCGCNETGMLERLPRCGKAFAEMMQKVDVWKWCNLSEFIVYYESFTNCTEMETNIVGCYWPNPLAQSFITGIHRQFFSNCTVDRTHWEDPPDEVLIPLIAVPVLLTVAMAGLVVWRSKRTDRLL

T2: rat calcitonin receptor (rat, UniProt P32214 25-516)
T2 construct: whole, on cells; Used as membranes prepared from the transfected cells; also called rCTR; rat calcitonin (a) receptor
T2 sequence (looked up): T1 sequence (looked up) 1

T3: human calcitonin receptor (human, UniProt P30988 25-474)
T3 construct: whole, on cells; Used as membranes prepared from the transfected cells (Assay VII); also called hCTR; hCT
T3 sequence (looked up): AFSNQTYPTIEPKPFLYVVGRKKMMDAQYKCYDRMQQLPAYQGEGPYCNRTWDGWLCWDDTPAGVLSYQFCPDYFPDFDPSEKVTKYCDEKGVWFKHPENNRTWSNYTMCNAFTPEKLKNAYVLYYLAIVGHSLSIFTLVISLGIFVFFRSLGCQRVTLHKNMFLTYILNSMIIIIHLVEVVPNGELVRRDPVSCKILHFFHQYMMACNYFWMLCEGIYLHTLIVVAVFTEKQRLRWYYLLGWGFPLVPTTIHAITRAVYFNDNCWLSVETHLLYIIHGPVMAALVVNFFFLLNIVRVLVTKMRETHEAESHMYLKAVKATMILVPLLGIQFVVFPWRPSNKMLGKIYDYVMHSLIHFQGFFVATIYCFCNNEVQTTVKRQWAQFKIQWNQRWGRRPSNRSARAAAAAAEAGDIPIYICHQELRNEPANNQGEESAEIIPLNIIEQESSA

B1: N^α1-[(4S)-4-carboxy-4-(19-carboxynonadecanoylamino)butanoyl]-[Glu14,Arg17,Pro21,Pro25,Pro28,Pro29,Pro37]-h-amylin (peptide)
peptide: {C20 diacid-γGlu}-KCNTATCATQRLAEFLRHSSPNFGPILPPTNVGSNTP-NH2
modifications: disulfide 2-7
SMILES: CC[C@H](C)[C@H](NC(=O)[C@@H]1CCCN1C(=O)CNC(=O)[C@H](Cc1ccccc1)NC(=O)[C@H](CC(N)=O)NC(=O)[C@@H]1CCCN1C(=O)[C@H](CO)NC(=O)[C@H](CO)NC(=O)[C@H](Cc1c[nH]cn1)NC(=O)[C@H](CCCNC(=N)N)NC(=O)[C@H](CC(C)C)NC(=O)[C@H](Cc1ccccc1)NC(=O)[C@H](CCC(=O)O)NC(=O)[C@H](C)NC(=O)[C@H](CC(C)C)NC(=O)[C@H](CCCNC(=N)N)NC(=O)[C@H](CCC(N)=O)NC(=O)[C@@H](NC(=O)[C@H](C)NC(=O)[C@@H]1CSSC[C@H](NC(=O)[C@H](CCCCN)NC(=O)CC[C@H](NC(=O)CCCCCCCCCCCCCCCCCCC(=O)O)C(=O)O)C(=O)N[C@@H](CC(N)=O)C(=O)N[C@@H]([C@@H](C)O)C(=O)N[C@@H](C)C(=O)N[C@@H]([C@@H](C)O)C(=O)N1)[C@@H](C)O)C(=O)N[C@@H](CC(C)C)C(=O)N1CCC[C@H]1C(=O)N1CCC[C@H]1C(=O)N[C@H](C(=O)N[C@@H](CC(N)=O)C(=O)N[C@H](C(=O)NCC(=O)N[C@@H](CO)C(=O)N[C@@H](CC(N)=O)C(=O)N[C@H](C(=O)N1CCC[C@H]1C(N)=O)[C@@H](C)O)C(C)C)[C@@H](C)O
notes: Derivative of human amylin; also called compound 4
B2: N^α1-[(4S)-4-carboxy-4-(19-carboxynonadecanoylamino)butanoyl]-[Glu14,Arg17,Pro21,Pro27,Arg35]-h-amylin (peptide)
peptide: {C20 diacid-γGlu}-KCNTATCATQRLAEFLRHSSPNFGAIPSSTNVGSRTY-NH2
modifications: disulfide 2-7
SMILES: CC[C@H](C)[C@H](NC(=O)[C@H](C)NC(=O)CNC(=O)[C@H](Cc1ccccc1)NC(=O)[C@H](CC(N)=O)NC(=O)[C@@H]1CCCN1C(=O)[C@H](CO)NC(=O)[C@H](CO)NC(=O)[C@H](Cc1c[nH]cn1)NC(=O)[C@H](CCCNC(=N)N)NC(=O)[C@H](CC(C)C)NC(=O)[C@H](Cc1ccccc1)NC(=O)[C@H](CCC(=O)O)NC(=O)[C@H](C)NC(=O)[C@H](CC(C)C)NC(=O)[C@H](CCCNC(=N)N)NC(=O)[C@H](CCC(N)=O)NC(=O)[C@@H](NC(=O)[C@H](C)NC(=O)[C@@H]1CSSC[C@H](NC(=O)[C@H](CCCCN)NC(=O)CC[C@H](NC(=O)CCCCCCCCCCCCCCCCCCC(=O)O)C(=O)O)C(=O)N[C@@H](CC(N)=O)C(=O)N[C@@H]([C@@H](C)O)C(=O)N[C@@H](C)C(=O)N[C@@H]([C@@H](C)O)C(=O)N1)[C@@H](C)O)C(=O)N1CCC[C@H]1C(=O)N[C@@H](CO)C(=O)N[C@@H](CO)C(=O)N[C@H](C(=O)N[C@@H](CC(N)=O)C(=O)N[C@H](C(=O)NCC(=O)N[C@@H](CO)C(=O)N[C@@H](CCCNC(=N)N)C(=O)N[C@H](C(=O)N[C@@H](Cc1ccc(O)cc1)C(N)=O)[C@@H](C)O)C(C)C)[C@@H](C)O
notes: Derivative of human amylin; also called compound 16
B3: N^α1-[(4S)-4-carboxy-4-(19-carboxynonadecanoylamino)butanoyl]-[Glu14,Arg17,Pro21,Pro25,Pro28,Pro29]-h-amylin (peptide)
peptide: {C20 diacid-γGlu}-KCNTATCATQRLAEFLRHSSPNFGPILPPTNVGSNTY-NH2
modifications: disulfide 2-7
SMILES: CC[C@H](C)[C@H](NC(=O)[C@@H]1CCCN1C(=O)CNC(=O)[C@H](Cc1ccccc1)NC(=O)[C@H](CC(N)=O)NC(=O)[C@@H]1CCCN1C(=O)[C@H](CO)NC(=O)[C@H](CO)NC(=O)[C@H](Cc1c[nH]cn1)NC(=O)[C@H](CCCNC(=N)N)NC(=O)[C@H](CC(C)C)NC(=O)[C@H](Cc1ccccc1)NC(=O)[C@H](CCC(=O)O)NC(=O)[C@H](C)NC(=O)[C@H](CC(C)C)NC(=O)[C@H](CCCNC(=N)N)NC(=O)[C@H](CCC(N)=O)NC(=O)[C@@H](NC(=O)[C@H](C)NC(=O)[C@@H]1CSSC[C@H](NC(=O)[C@H](CCCCN)NC(=O)CC[C@H](NC(=O)CCCCCCCCCCCCCCCCCCC(=O)O)C(=O)O)C(=O)N[C@@H](CC(N)=O)C(=O)N[C@@H]([C@@H](C)O)C(=O)N[C@@H](C)C(=O)N[C@@H]([C@@H](C)O)C(=O)N1)[C@@H](C)O)C(=O)N[C@@H](CC(C)C)C(=O)N1CCC[C@H]1C(=O)N1CCC[C@H]1C(=O)N[C@H](C(=O)N[C@@H](CC(N)=O)C(=O)N[C@H](C(=O)NCC(=O)N[C@@H](CO)C(=O)N[C@@H](CC(N)=O)C(=O)N[C@H](C(=O)N[C@@H](Cc1ccc(O)cc1)C(N)=O)[C@@H](C)O)C(C)C)[C@@H](C)O
notes: Derivative of human amylin; also called compound 6
B4: N^α1-[(4S)-4-carboxy-4-(19-carboxynonadecanoylamino)butanoyl]-[Glu14,Arg17,Pro21,Pro26]-h-amylin (peptide)
peptide: {C20 diacid-γGlu}-KCNTATCATQRLAEFLRHSSPNFGAPLSSTNVGSNTY-NH2
modifications: disulfide 2-7
SMILES: CC(C)C[C@H](NC(=O)[C@H](CCCNC(=N)N)NC(=O)[C@H](CCC(N)=O)NC(=O)[C@@H](NC(=O)[C@H](C)NC(=O)[C@@H]1CSSC[C@H](NC(=O)[C@H](CCCCN)NC(=O)CC[C@H](NC(=O)CCCCCCCCCCCCCCCCCCC(=O)O)C(=O)O)C(=O)N[C@@H](CC(N)=O)C(=O)N[C@@H]([C@@H](C)O)C(=O)N[C@@H](C)C(=O)N[C@@H]([C@@H](C)O)C(=O)N1)[C@@H](C)O)C(=O)N[C@@H](C)C(=O)N[C@@H](CCC(=O)O)C(=O)N[C@@H](Cc1ccccc1)C(=O)N[C@@H](CC(C)C)C(=O)N[C@@H](CCCNC(=N)N)C(=O)N[C@@H](Cc1c[nH]cn1)C(=O)N[C@@H](CO)C(=O)N[C@@H](CO)C(=O)N1CCC[C@H]1C(=O)N[C@@H](CC(N)=O)C(=O)N[C@@H](Cc1ccccc1)C(=O)NCC(=O)N[C@@H](C)C(=O)N1CCC[C@H]1C(=O)N[C@@H](CC(C)C)C(=O)N[C@@H](CO)C(=O)N[C@@H](CO)C(=O)N[C@H](C(=O)N[C@@H](CC(N)=O)C(=O)N[C@H](C(=O)NCC(=O)N[C@@H](CO)C(=O)N[C@@H](CC(N)=O)C(=O)N[C@H](C(=O)N[C@@H](Cc1ccc(O)cc1)C(N)=O)[C@@H](C)O)C(C)C)[C@@H](C)O
notes: Derivative of human amylin; also called compound 7
B5: N^α1-[(4S)-4-carboxy-4-(19-carboxynonadecanoylamino)butanoyl]-[Glu14,Arg17,Pro21,Pro26,Pro37]-h-amylin (peptide)
peptide: {C20 diacid-γGlu}-KCNTATCATQRLAEFLRHSSPNFGAPLSSTNVGSNTP-NH2
modifications: disulfide 2-7
SMILES: CC(C)C[C@H](NC(=O)[C@H](CCCNC(=N)N)NC(=O)[C@H](CCC(N)=O)NC(=O)[C@@H](NC(=O)[C@H](C)NC(=O)[C@@H]1CSSC[C@H](NC(=O)[C@H](CCCCN)NC(=O)CC[C@H](NC(=O)CCCCCCCCCCCCCCCCCCC(=O)O)C(=O)O)C(=O)N[C@@H](CC(N)=O)C(=O)N[C@@H]([C@@H](C)O)C(=O)N[C@@H](C)C(=O)N[C@@H]([C@@H](C)O)C(=O)N1)[C@@H](C)O)C(=O)N[C@@H](C)C(=O)N[C@@H](CCC(=O)O)C(=O)N[C@@H](Cc1ccccc1)C(=O)N[C@@H](CC(C)C)C(=O)N[C@@H](CCCNC(=N)N)C(=O)N[C@@H](Cc1c[nH]cn1)C(=O)N[C@@H](CO)C(=O)N[C@@H](CO)C(=O)N1CCC[C@H]1C(=O)N[C@@H](CC(N)=O)C(=O)N[C@@H](Cc1ccccc1)C(=O)NCC(=O)N[C@@H](C)C(=O)N1CCC[C@H]1C(=O)N[C@@H](CC(C)C)C(=O)N[C@@H](CO)C(=O)N[C@@H](CO)C(=O)N[C@H](C(=O)N[C@@H](CC(N)=O)C(=O)N[C@H](C(=O)NCC(=O)N[C@@H](CO)C(=O)N[C@@H](CC(N)=O)C(=O)N[C@H](C(=O)N1CCC[C@H]1C(N)=O)[C@@H](C)O)C(C)C)[C@@H](C)O
notes: Derivative of human amylin; also called compound 5

Molecular target: T1, rat amylin receptor (rat calcitonin …)
Test: SPA competition with 125I-rat amylin, membranes of BHK cells with rat calcitonin receptor + rat RAMP3 (Assay VI)

Binder | IC50
B1 | 1.3 nM
B2 | 1.21 nM
B3 | 2.37 nM
B4 | 1.12 nM
B5 | 1.3 nM

Molecular target: T2, rat calcitonin receptor
Test: ratio IC50 rat calcitonin receptor / IC50 rat amylin receptor (Assays VIII and VI)

Binder | Ratio rCT/rAmylin binding
B1 | 3.1
B2 | 45.6
B3 | 21.7
B4 | 42
B5 | 3.6

Molecular target: T3, human calcitonin receptor
Test: ratio IC50 human calcitonin receptor / IC50 human amylin receptor (Assays VII and V)
In short: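 IC₅₀ values were derived by one-site competition analysis of SPA counts. Cell membranes (35 ng/μL) with SPA beads were incubated with test compounds for 120 min at 25° C in Hepes buffer, pH 7.4, containing CaCl2, MgCl₂, OA and Tween20.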

Binder | Ratio hCT/hAmylin binding
B1 | 2.1
B2 | 19.1
B3 | 20
B4 | 16.5
B5 | 1.4

Molecular target: T2, rat calcitonin receptor
Test: SPA competition with 125I-calcitonin, membranes of BHK cells with rat calcitonin receptor (Assay VIII)

Binder | IC50
B1 | 4.05 nM
B2 | 55.2 nM
B3 | 51.5 nM
B4 | 47.2 nM
B5 | 4.65 nM

Reference: patent US20140087995A1 (published 2014)
